The record followed here is article PMC4145799, “Assembly principles of a unique cage formed by hexameric and decameric E. coli proteins” (eLife, 2014).

B1: AAA+ ATPase RavA (enzyme)
chain: not shown
notes: RavA of Escherichia coli, MoxR family AAA+ ATPase; crystal structure pdb 3NBX; The purification is told for the RavA mutants ('as previously described', El Bakkouri et al., 2010); also called MoxR AAA+ ATPase RavA; source: E. coli BL21-(DE3) Gold pLysS, from p11 plasmid, purified (Ni-NTA, TEV, MonoS, Superdex S200); not shown: 6xHis-tag, N-terminal, cleaved
B2: inducible lysine decarboxylase LdcI (enzyme, Escherichia coli)
chain: MNVIAILNHMGVYFKEEPIRELHRALERLNFQIVYPNDRDDLLKLIENNARLCGVIFDWDKYNLELCEEISKMNENLPLYAFANTYSTLDVSLNDLRLQISFFEYALGAAEDIANKIKQTTDEYINTILPPLTKALFKYVREGKYTFCTPGHMGGTAFQKSPVGSLFYDFFGPNTMKSDISISVSELGSLLDHSGPHKEAEQYIARVFNADRSYMVTNGTSTANKIVGMYSAPAGSTILIDRNCHKSLTHLMMMSDVTPIYFRPTRNAYGILGGIPQSEFQHATIAKRVKETPNATWPVHAVITNSTYDGLLYNTDFIKKTLDVKSIHFDSAWVPYTNFSPIYEGKCGMSGGRVEGKVIYETQSTHKLLAAFSQASMIHVKGDVNEETFNEAYMMHTTTSPHYGIVASTETAAAMMKGNAGKRLINGSIERAIKFRKEIKRLRTESDGWFFDVWQPDHIDTTECWPLRSDSTWHGFKNIDNEHMYLDPIKVTLLTPGMEKDGTMSDFGIPASIVAKYLDEHGIVVEKTGPYNLLFLFSIGIDKTKALSLLRALTDFKRAFDLNLRVKNMLPSLYREDPEFYENMRIQELAQNIHKLIVHHNLPDLMYRAFEVLPTMVMTPYAAFQKELHGMTEEVYLDEMVGRINANMILPYPPGVPLVMPGEMITEESRPVLEFLQMLCEIGAHYPGFETDIHGAYRQADGRYTVKVLKEESKK
notes: Inducible lysine decarboxylase LdcI of Escherichia coli; decamer of two pentameric rings; crystal structure pdb 3N75; also called acid stress-inducible lysine decarboxylase; source: E. coli CF1693 bearing pT7-322-Tetr, from pET22b, purified (Ni-NTA, MonoQ, Superdex S200); not shown: 24 amino acid linker containing 6xHis-tag, C-terminal, kept; copies: 10

The target in data set [1] is B2. The experiment in a line: cryo-EM structure; LdcI–RavA complex, 11 Å; 1.26 mg/ml LdcI mixed with 0.94 mg/ml RavA, 15 min at room temperature, 25 mM Mes pH 6.5, 200 mM NaCl, 3 mM ADP, 0.8 mM PLP, 1 mM DTT; no cross-linking; D5 symmetry imposed. The conditions noted are these: both partners purified.
Data set [2] concerns the molecule itself. The data set is described as above.
Data set [3] concerns the molecule itself. The experiment in a line: cryo-EM structure; LdcI-LARA complex, 7.5 Å; 7.3 µM LdcI with 73 µM LARA (1:10), 15 min at room temperature, 50 mM Mes pH 6.5, 100 mM NaCl, 0.2 mM PLP, 1 mM DTT, 0.01% glutaraldehyde; D5 symmetry imposed.

For B1, the “stoichiometry N” value in data set [1] is 1.5 RavA monomers per LdcI monomer; in data set [2], 6.
For B2, the “stoichiometry N” value in data set [3] is 10.
